Results on one molecule are retold here after paper PMC12338438.

For orientation: Kd means the free concentration of one partner at which half of the binding sites on the other are occupied at equilibrium, for simple one-to-one binding.

Common to all, as to assay: fluorescence dot blot
The target of data set [1] is myeloperoxidase (MPO) (UniProt P05164;P05164 165-273;279-745).
Data set [2] deals with thrombin (UniProt P00734;P00734 328-363;364-622).
Data set [3] addresses T1, PBP2a (penicillin binding protein 2a), recombinant soluble (Staphylococcus aureus (MRSA)?, UniProt Q7DHH4 25-668).
T1 sequence: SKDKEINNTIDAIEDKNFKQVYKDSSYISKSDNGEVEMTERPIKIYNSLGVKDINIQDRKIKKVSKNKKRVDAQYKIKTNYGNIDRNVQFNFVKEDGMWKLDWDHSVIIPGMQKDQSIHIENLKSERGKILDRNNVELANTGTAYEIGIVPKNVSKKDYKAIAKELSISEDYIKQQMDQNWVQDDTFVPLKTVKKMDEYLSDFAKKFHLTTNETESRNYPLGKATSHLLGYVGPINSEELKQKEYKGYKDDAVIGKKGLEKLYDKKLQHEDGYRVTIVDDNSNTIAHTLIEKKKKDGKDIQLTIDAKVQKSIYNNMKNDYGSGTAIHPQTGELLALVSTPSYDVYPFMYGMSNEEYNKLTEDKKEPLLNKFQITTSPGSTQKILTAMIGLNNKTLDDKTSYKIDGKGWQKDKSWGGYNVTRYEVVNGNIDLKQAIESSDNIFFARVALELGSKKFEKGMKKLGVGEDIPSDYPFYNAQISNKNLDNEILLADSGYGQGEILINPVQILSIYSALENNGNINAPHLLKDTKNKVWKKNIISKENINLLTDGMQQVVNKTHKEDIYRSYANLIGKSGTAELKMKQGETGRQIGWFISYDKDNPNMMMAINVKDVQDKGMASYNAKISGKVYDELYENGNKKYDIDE

myeloperoxidase (MPO), sequence (P05164 165-273, chain 1 of 2): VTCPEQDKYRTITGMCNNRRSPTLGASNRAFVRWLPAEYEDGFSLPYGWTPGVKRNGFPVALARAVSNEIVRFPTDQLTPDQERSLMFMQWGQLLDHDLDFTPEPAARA
myeloperoxidase (MPO), sequence (P05164 279-745, chain 2 of 2): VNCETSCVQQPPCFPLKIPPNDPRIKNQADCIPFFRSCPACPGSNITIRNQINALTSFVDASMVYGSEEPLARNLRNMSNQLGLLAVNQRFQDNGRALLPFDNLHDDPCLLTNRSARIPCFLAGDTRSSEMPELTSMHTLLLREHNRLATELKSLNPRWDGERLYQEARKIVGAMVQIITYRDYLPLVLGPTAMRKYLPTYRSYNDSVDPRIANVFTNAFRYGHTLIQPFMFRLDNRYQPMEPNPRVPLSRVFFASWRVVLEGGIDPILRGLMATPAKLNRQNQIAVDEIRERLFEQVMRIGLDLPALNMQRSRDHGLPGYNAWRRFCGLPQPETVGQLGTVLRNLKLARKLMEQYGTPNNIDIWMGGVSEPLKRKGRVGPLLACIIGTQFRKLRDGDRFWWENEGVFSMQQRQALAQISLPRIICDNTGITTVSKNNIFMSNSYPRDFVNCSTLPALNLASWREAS

B1: PBP2a-Apt1T1 (ssDNA)
DNA: ATGCCATCCTACCAACCCGGTGTTCGTGTGGGTGTAGAGGGGGCGAAGGATGGC
Consider B1, for which the binding result in data set [1] and in data set [2] was “no binding” in each case. Further, in data set [3], the dissociation constant (Kd) is 58 ± 11 nM.
